This passage reports Kd results from patent publication US20250114450A1, “PHARMACEUTICAL COMBINATION CONTAINING ANTI-PD-1-ANTI-VEGFA BISPECIFIC ANTIBODY, AND USE THEREOF” (Akeso Biopharma, Inc., priority 2021, published 2025).

pKd: −log10 of the molar value.

The target in the experiment is FcγRI (UniProt P12314). As to the kind of experiment: BLI (Fortebio Octet), FcγRI immobilized on HIS1K sensor, antibody 3.12-50 nM, 1:1 fit.
Sequence of FcγRI (P12314 16-288 limits assumed): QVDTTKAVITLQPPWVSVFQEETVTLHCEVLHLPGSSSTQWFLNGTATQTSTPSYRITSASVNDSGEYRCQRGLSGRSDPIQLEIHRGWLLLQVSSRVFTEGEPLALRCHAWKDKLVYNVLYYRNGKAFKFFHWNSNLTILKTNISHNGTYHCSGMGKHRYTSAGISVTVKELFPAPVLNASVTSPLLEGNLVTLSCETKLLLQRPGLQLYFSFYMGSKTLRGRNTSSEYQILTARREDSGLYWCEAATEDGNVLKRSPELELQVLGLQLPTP

For Nivolumab (antibody), the pKd was 8.21.

For orientation: pKd means −log10 of the Kd, conventionally taken in molar units. Low values mean a large Kd, high ones a small Kd.
